Reference: US20120263701

T1: soluble tissue factor, P13726
T1 chain: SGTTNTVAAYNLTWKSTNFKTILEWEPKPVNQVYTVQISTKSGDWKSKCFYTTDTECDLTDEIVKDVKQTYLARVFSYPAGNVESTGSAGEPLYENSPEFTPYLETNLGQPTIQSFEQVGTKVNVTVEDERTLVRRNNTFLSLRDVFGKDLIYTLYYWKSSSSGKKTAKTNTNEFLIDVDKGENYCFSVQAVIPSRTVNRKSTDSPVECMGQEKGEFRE


Key:
[1] = target: T1, soluble tissue factor, P13726

Molecule	Concentration by Activity (ng/ml), aPTT based factor assay (FIX/cFXI1/XTEN (pCW0735))	Fraction Active (activity / ELISA) (FIX/cFXI1/XTEN (pCW0735))	clotting activity against FIX-XTEN without cleavage site (aPTT based factor assay) (FIX/cFXI1/XTEN (pCW0735))	Concentration by Activity (ng/ml), aPTT based factor assay (FIX/cFXI2/XTEN (pCW0736))	Fraction Active (activity / ELISA) (FIX/cFXI2/XTEN (pCW0736))	clotting activity against FIX-XTEN without cleavage site (aPTT based factor assay) (FIX/cFXI2/XTEN (pCW0736))	Concentration by Activity (ng/ml), aPTT based factor assay (FIX/cFXI3/XTEN (pCW0737))	Fraction Active (activity / ELISA) (FIX/cFXI3/XTEN (pCW0737))	clotting activity against FIX-XTEN without cleavage site (aPTT based factor assay) (FIX/cFXI3/XTEN (pCW0737))	soluble tissue factor (sTF) induced clotting (Stago STA-Clot FVIIa activity assay) [1]
FXI protease	7 ng/mL	30%	enhanced the clotting activity by greater than 30-fold	9 ng/mL	34%	enhanced the clotting activity by greater than 30-fold	11 ng/mL	40%	enhanced the clotting activity by greater than 30-fold	
FVIIa-AE288 (protein) chain 1: ANAFLEELRPGSLERECKEEQCSFEEAREIFKDAERTKLFWISYSDGDQCASSPCQNGGSCKDQLQSYICFCLPAFEGRNCETHKDDQLICVNENGGCEQYCSDHTGTKRSCRCHEGYSLLADGVSCTPTVEYPCGKIPILEKRNASKPQGR chain 2: IVGGKVCPKGECPWQVLLLVNGAQLCGGTLINTIWVVSAAHCFDKIKNWRNLIAVLGEHDLSEHDGDEQSRRVAQVIIPSTYVPGTTNHDIALLRLHQPVVLTDHVVPLCLPERTFSERTLAFVRFSLVSGWGQLLDRGATALELMVLNVPRLMTQDCLQQSRKVGDSPNITEYMFCAGYSDGSKDSCKGDSGGPHATHYRGTWYLTGIVSWGQGCATVGHFGVYTRVSQYIEWLQKLMRSEPRPGVLLRAPFPGSPGTSESATPESGPGSEPATSGSETPGTSESATPESGPGSEPATSGSETPGTSESATPESGPGTSTEPSEGSAPGSPAGSPTSTEEGTSESATPESGPGSEPATSGSETPGTSESATPESGPGSPAGSPTSTEEGSPAGSPTSTEEGTSTEPSEGSAPGTSESATPESGPGTSESATPESGPGTSESATPESGPGSEPATSGSETPGSEPATSGSETPGSPAGSPTSTEEGTSTEPSEGSAPGTSTEPSEGSAPGSEPATSGSETPGTSESATPESGPGTSTEPSEGSAPGSSS										an activity equivalent to 112 U/ml of FVIIa activity
